Experimental findings from publication PMC12112095, “Insights into Chemoreceptor MCP2201-Sensing D-Malate” (International Journal of Molecular Sciences, 2025) are described below.

In test [1] the target is T1, MCP2201 (Comamonas thiooxydans, UniProt A0ABF7PFR0).
T1 construct: gene CtCNB1_2201; LBD (residues 58–203), N-terminal His6-tag
T1 sequence (A0ABF7PFR0 58-203): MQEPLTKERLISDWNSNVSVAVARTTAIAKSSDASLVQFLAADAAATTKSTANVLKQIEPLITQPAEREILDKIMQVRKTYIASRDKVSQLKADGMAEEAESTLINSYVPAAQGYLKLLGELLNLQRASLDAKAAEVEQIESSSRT
Briefly: analytical ultracentrifugation (ligand-induced LBD dimerization). Type of test: binding.

Test [2] deals with T2, MCP2201 (Comamonas thiooxydans, UniProt A0ABF7PFR0, T105A).
T2 construct: gene CtCNB1_2201; T105A LBD
Briefly: ITC. Type of test: binding.

In test [3] the target is T1, MCP2201. Briefly: ITC; crystal structure at […] Å. It counts as binding. In general terms: Isothermal titration calorimetry measures the heat released or taken up as one component is titrated into another.
Test [4] deals with MCP2201 LBD mutant T105A (T105A LBD) (Comamonas testosteroni CNB-1). Description: AUC; in the presence of citrate; Beckman XL-I, 60,000 x g, 7 h, 4 °C.
The target is the same in test [5]. Description: AUC; ligand-free; Beckman XL-I, 60,000 x g, 7 h, 4 °C.
The target is the same in test [6]. Description: AUC; in the presence of D-malate; Beckman XL-I, 60,000 x g, 7 h, 4 °C.
For test [7], the target named is ligand-binding domain of MCP2201 (MCP2201 LBD) (Comamonas testosteroni CNB-1). Briefly: ITC; dilution: 1.1 mM protein in 10 mM D-malate, 20 mM Tris pH 7.5, 150 mM NaCl injected into the same buffer, 25 °C; oligomer dissociation model; dimer to monomers.
Test [8] shares this target. Briefly: AUC; ligand-free; Beckman XL-I, 60,000 x g, 7 h, 4 °C.
For test [9] the target is unchanged. Description: AUC; in the presence of L-malate; Beckman XL-I, 60,000 x g, 7 h, 4 °C.
For test [10] the target is unchanged. Briefly: AUC; in the presence of D-malate; Beckman XL-I, 60,000 x g, 7 h, 4 °C.

On to `O=C(O)CC(O)C(=O)O` (stereo in doubt) [L-malate], for which the “analytical ultracentrifugation (ligand-induced LBD dimerization)” value at MCP2201 [1] is recorded as “the D-malate-bound MCP2201 LBD predominately occurred as a dimer, the same as the L-malate-bound LBD (Figure 3B)”.

In the case of `O=C(O)C[C@@H](O)C(=O)O` [D-malate], the Kd worked out at 5.5 ± 0.01 µM at MCP2201 [2] and 40 ± 3.3 µM at MCP2201 [3].

At MCP2201 [2], `O=C(O)CC(O)(CC(=O)O)C(=O)O` [citrate] came in with a Kd of 670 ± 270 µM.

In the case of “MCP2201 LBD mutant T105A (T105A LBD) (domain or fragment)”, the stoichiometry N in test [4], in test [5] and in test [6] was 2 in each case.

In test [7], “ligand-binding domain of MCP2201 (MCP2201 LBD) (domain or fragment)” showed a dissociation constant Kd of 0.027 µM. Also, the stoichiometry N in test [8], in test [9] and in test [10] was 2 throughout.

A word on the Kd: it is a measure of binding affinity in units of concentration. In general, stoichiometry N refers to a count of units in the complex or per binding partner.
